{"source": "paper PMC5322562", "about": "“Dynamic regulation of GDP binding to G proteins revealed by magnetic field-dependent NMR relaxation analyses” (Nature Communications, 2017)", "binders": {"B1": {"name": "GoLoco14 peptide (residues 496–531 of rat RGS14) (peptide)", "chain": "GPLGSDIEGLVELLNRVQSSGAHDQRGLLRKEDLVLPEFLQ"}}, "target": "human Gαi3 (residues 1–354), GDP-bound form (human, UniProt P08754 1-354)", "sequence (P08754 whole entry, the tested form may be a part)": "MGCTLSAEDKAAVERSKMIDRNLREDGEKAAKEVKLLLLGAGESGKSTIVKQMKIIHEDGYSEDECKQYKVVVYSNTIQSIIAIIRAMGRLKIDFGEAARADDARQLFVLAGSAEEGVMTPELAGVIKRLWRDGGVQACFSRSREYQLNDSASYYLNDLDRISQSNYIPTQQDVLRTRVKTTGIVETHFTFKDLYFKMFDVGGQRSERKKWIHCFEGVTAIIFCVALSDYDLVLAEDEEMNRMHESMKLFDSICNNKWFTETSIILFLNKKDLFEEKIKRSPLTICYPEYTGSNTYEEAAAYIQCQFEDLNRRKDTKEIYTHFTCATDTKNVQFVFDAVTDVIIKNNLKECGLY", "assay": "cell-based or functional assay", "data": [{"binder": "B1", "values": [{"measurement": "IC50 of the inhibition of 3H-GDP dissociation from Gα-GDP (bound 3H-GDP after a 10 min incubation with 100 nM to 10 μM GoLoco14; 30 °C)", "result": 620, "unit": "nM"}]}]}
